Experiments:
[1] = target: T1, PRMT1-WT (Homo sapiens, UniProt Q99873); assay: Radiometric filter-binding assay, PRMT1-WT activity in presence of inactive PRMT1 mutants; format: biochemical; conditions: 0.05 μM PRMT1-WT, mutant 20 min on ice, 50 μM peptide, 2 μM [3H]-SAM and 48 μM SAM, 30 min
T1 construct: His-MBP (N, cleaved yes); made in house; host or cells: Escherichia coli BL21 (DE3) RIPL
Description: (§1) Constant PRMT1-WT concentration and various PRMT1-E153Q concentrations were maintained in the aqueous buffer prior to adding peptide and SAM to initiate the reaction. The reaction was quenched with isopropanol. The reaction mixture was loaded on the P81 filter paper that was air dried, washed, and immersed in scintillation cocktail for scintillation counting. […] To eliminate this possibility, we created a double mutant (PRMT1-H293G/E153Q) to further abolish PRMT1 activity. […] We then tested PRMT1-WT activity in the presence of various concentrations of PRMT1-H293G/E153Q (Fig. 7, G–L). […] These increasing trends were the same as that of PRMT1-E153Q. […] Again, similar to Figure 6, D–F, the increase in kcat started to slow down a bit at >1 μM concentrations of PRMT1-E153Q or PRMT1-H293G/E153Q, which is likely due to substrate overconsumption under these conditions.
Figure 7 Arginine methylation of various peptides by high-order oligomeric PRMT1-WT and PRMT1 mutants. Filter-binding assay was used to characterize the methyltransferase activity. Firstly, 0.05 μM of PRMT1 was incubated with various concentrations of PRMT1-E153Q or PRMT1-H293G/E153Q on ice for 20 min. Afterward, 2 μM radioactive [3H]-SAM and 48 μM SAM and 50 μM of indicated peptides was added and incubated for 30 min before quenching the reaction with 100% isopropanol. […]

[2] = tested on: R4 peptide; assay: Radiometric methyltransferase activity of PRMT1 mutants on R4 peptide; format: biochemical; conditions: various mutant concentrations, 50 μM peptide, 2 μM [3H]-SAM and 48 μM SAM, 30 min
Description: as §1
To perform PRMT1 and PRMT1 mutants (PRMT1-E153Q and PRMT1-H293G/E153Q) concentration-dependent measurement, each reaction contained various concentration of PRMT1 or PRMT1 mutant, 50 μM of peptide, and 50 μM SAM (48 μM cold and […] ^3H-SAM). The reaction buffer consisted of 50 mM Hepes pH 8.0, 10 mM NaCl, 0.5 mM EDTA, and 0.5 mM DTT. The reaction was incubated at room temperature for 30 min after being initiated with ^3H-SAM SAM. An equal amount of 100% isopropanol to the total reaction volume was used to quench the reaction. […]

T1 sequence (Q99873 11-353 isoform Q99873-3): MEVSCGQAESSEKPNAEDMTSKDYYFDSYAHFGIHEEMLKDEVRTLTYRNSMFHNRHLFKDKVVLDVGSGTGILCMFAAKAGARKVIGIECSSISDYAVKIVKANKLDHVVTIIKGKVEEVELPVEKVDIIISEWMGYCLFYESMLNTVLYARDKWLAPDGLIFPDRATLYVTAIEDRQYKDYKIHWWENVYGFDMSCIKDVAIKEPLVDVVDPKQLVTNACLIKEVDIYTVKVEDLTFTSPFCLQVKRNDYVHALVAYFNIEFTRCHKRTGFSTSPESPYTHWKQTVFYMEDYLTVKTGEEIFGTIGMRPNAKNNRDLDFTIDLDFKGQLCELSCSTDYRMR

For “PRMT1-H293G/E153Q: double mutant created to further abolish PRMT1 activity”, the “kcat of PRMT1-WT (CPM / PRMT1-WT concentration) in presence of mutant” value [1] was “increased as a function of PRMT1-H293G/E153Q concentration”, the “methylated product amount (CPM) of PRMT1-WT in presence of mutant” value [1] was “gradually went up as the concentrations of the double mutant increased” and the “methyltransferase activity of PRMT1 mutant” value [2] was “even weaker than PRMT1-E153Q, greatly diminished to near background level”.

Reference: article PMC11681865, “Oligomerization of protein arginine methyltransferase 1 and its functional impact on substrate arginine methylation” (The Journal of Biological Chemistry, 2024)
